The record followed here is paper doi:10.1101/2025.05.28.656462 (bioRxiv, 2025).

For orientation: stoichiometry N means a count of units in the complex or per binding partner.

This data set deals with the molecule itself. Description: SEC. In general terms: SEC sorts molecules by how far they enter the pores of the column.

B1: full-length Pseudomonas aeruginosa bacteriophytochrome PaBphP, wild type (FL-PaBphP-D) (natural protein)
chain: MTSITPVTLANCEDEPIHVPGAIQPHGALVTLRADGMVLAASENIQALLGFVASPGSYLTQEQVGPEVLRMLEEGLTGNGPWSNSVETRIGEHLFDVIGHSYKEVFYLEFEIRTADTLSITSFTLNAQRIIAQVQLHNDTASLLSNVTDELRRMTGYDRVMAYRFRHDDSGEVVAESRREDLESYLGQRYPASDIPAQARRLYIQNPIRLIADVAYTPMRVFPALNPETNESFDLSYSVLRSVSPIHCEYLTNMGVRASMSISIVVGGKLWGLFSCHHMSPKLIPYPVRMSFQIFSQVCSAIVERLEQGRIAELLRVSTERRLALARRARDADDLFGALAHPDDGIAALIPCDGALVMLGGRTLSIRGDFERQAGNVLQRLQRDPERDIYHTDNWPQPSEDSPDGGDCCGVLAIRFHRQESGWIFWFRHEEVHRIRWGGKPEKLLTIGPSGPRLTPRGSFEAWEEVVRGHSTPWSETDLAIAEKLRLDLMELCLNHAAEVDRMRQRLIAVLGHDLRNPLQSISMAAALLSSSDTRTTELRQHISASSSRMERLVSQILDMSRLQSGIGLTVNPVDTDVSQLVRQIVCETDVAYPGLVIEIAIDPQVRAVVDPDRYAQVAANLLSNARHHGLPGRPVLVTLTRQGDEVCLSVLNETSGLSEAQLANLFEPFKRESADNQRNRNGLGIGLYISQAIAQAHQGRIDVDCRDDVITFCLRLPVRQAETGSSS
With B1, the “stoichiometry N” value turned out to be 2.
